From the nanobody polyreactivity screen of Harvey et al. (2022)

Test: yeast display, Sf9 membrane polyspecificity reagent, FACS + sequencing; frameworks hold sequencing errors
Procedure, shortened: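 Sorting gates, low and high (top ~1%), were placed on anti-HA fluorescence to track expression and on streptavidin fluorescence to track reagent binding. A clone's polyreactivity label is taken from the gate it came out of. The reagent was 10% biotinylated, detergent-solubilized Sf9 membrane, applied for 1 hour at 4 °C to galactose-induced yeast display cells.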

Sequence | polyreactivity (PSR sort gate)
QVQLVESWGGLVQAGGSLRLICAASGSTFYYNAMGWYRQAPGKEREFVAAISSRRGSTYYADSVKGRFTISRDNAKNTVYLQMNSLKQEDTAVYYCAAKYSHRYDWGQGTQVTVSA | high polyreactivity
QVQLVESGGGLVQAGGSLRLSCAASGSIVPFYAMGWDRQAPGKERELVATISSGDSTHYADSVKGRFTISRDNAKNTVYLQMNSLKPEDTAVYYCNRRNKAQRFFELGYWGQGTQVTVSS | low polyreactivity
QVQLVESGGGLVQAGGSLRLSCAASGSIFPYYAMGWYRPAPGKERELVASINQSDGTTYYADSVKGRFTISRDNAKNTVYLQMNRLKPEDTAVSYCAADTTLQDFIRYRPMGSYDSWGQGTQVTVSS | low polyreactivity
QVQLVESGGGLVEAGGSLRLSCAASGRIFRKYTMGWYRQAPGKERELVAAISRNGGDTYYADSVKGRFTISRDNAKNTVYLLMNSLKPEDTAVYYCNARTPTDSTHFDYWGQGTQVSVSS | low polyreactivity
QVQLVESGGGLFQAGGSLRLSCAASGRTFVKYDMGWYRHAPGKERELVAAISRRGGSTYYADSVKGRFTISRDNAKNTVYLQMNSLKPEDTAVYYCNAVHPKDVDSYRDRDYWGQGTQVTVSS | high polyreactivity
QVQLVESGGGLVQAGGSLRLSCAASGLIFQSYAMGWYRQAPGKERELVAVITWSGTSTYADSVKGRFTISRDNAKNTVYLQMNSLKPEDTAVYYCAASKYGSFTNFGYWGQGTQVTVSS | low polyreactivity
QVQLVESGLGLVQAGGSLRLSCAHSGSTLVYNDMRWYRQAPGKEREFVAAIRSNDGSTYYADSVNGRFTISRDNAKNTVYLQMNSLTPEDTAVYYCAATFSSAFAYYYWGQGTQVTVSS | low polyreactivity
QVQLVESGGGLVQAGGSLRLSCAASGSTFYRNAMGWYRQAPGKERELVAGITSGVTTYYADSVKGRFTISRDNAKNTVYLQMNSLKPEDSAVYYCAVYWRGRGAFTYGSWGQGTQVTVSS | high polyreactivity
QVQLVESGGGLVQAGGSLRLSCAASGLTFHRYAMGWYRQAPGKERELVAAINYSGGRTYYADSVKGRFTISRDNAKNTLYLQMNSLKPEDTAVYYCAAPRASGYYWGQGTQVTVSS | high polyreactivity
QVQLVESGGGLVQAGGSLRLSCAASGSIFGLYGMGWYRPAAGKERELLAAITGRGGSTYYADSVKGRFTISRDNAKITVYLQMNSLKPEDTAVYYCAALRYTFAGRFDYWGQGTQVNVSS | high polyreactivity
QVQLVESGGGLVQAGGSLRLSCAASGSTFYPYAMGWYSQAPGKERELVAAISSGGSTSYADSVKGRFTISRDNAKNTVYLQMNSLKPEDTAVYYCNASSPGAVPVYDYDYWGQGTQVTVSS | low polyreactivity
QVQLVESGGGLVQAGASLRLSCAASGSNFWFYAMGWYRQAPGKERELVAVISNSGSTYYADSVKGRFTFSRDNAQNTVYLQMNSLKAEDTAVYYCNKDGGGDSYWYDYWGQGTQVTVSS | low polyreactivity
QVQLVESGGGLVQAGGSLRLSCAASGLTLGDNAMGWSRQAPGNERELVASITNGGSTNYADSVKGRFTISRDNAKNTVYLQMNSLNPEDTAVYYCAVEWTWRSTAYSGGAFDYWGQGTQVTVSS | low polyreactivity
QVQLLESGGGIVQAGGSLRLSCAASGRINAMGWYRQAPGKERELVAVITLRGGSTYYADSVKGRFTISRDNAKNTVYLQMNSLKPEYTAVYYCAAVYRWPDAKYDYWGQGTQVSVSS | low polyreactivity
QVQLVESGGGLVQAGGSLRLSCAASGIFGRNAMGWYRQAPGKERELVAAITGSGGRTYYADSVKGRFTISRDNAKNTVYLQMNSLKPEDTAVSYCAASIPSTHGYAYDYWGQGNQVTVSS | high polyreactivity
QVQLVESGGGLVQAGGSLRLSCAACGFIFRRYAMGWYRQAPGKERELVAAISSGGNTNYADSVKGRFTISRDNAKNTVYLQMNSLKPEDTAVYYCAVLGWYYYKYDYWGQGTQVNVSS | high polyreactivity
QVQLGESGGGLVQAGGSLRLSCAASGLIIFSYAMGWSRQAPGKELEMVAAISRSGGRTYFADSVKGRFTISRDNAKNTVFLQMNRLKPEDTAVYYCAADDPYTPQYPDVTYDFWGQGTQVTVSS | high polyreactivity
QVHLVESGGGLVQAGGSLRLSCAASGFIFSVYAMGWYRQAPGKERELVAAINRSGSNTYYADSVKGRFTISRDNAKNTVYLQMNSLKPEDTAVYYCATLQGFWYYPPYIKTVQYGYWGQGTQVTVSS | high polyreactivity
QVQLVESGGCLVQAGGSLRLSCAASGRTFGFYAMGWYRQAPGKERELVAGITQSGGSTYYADSVKGRFTISRDNAKNTVYLQMNSLKTEDTAVYYCATDYQQLDDYWGQGTQVTVSS | low polyreactivity
QVQLVESGGGLVQAGGSLRLSCDASGFIFTGNVMGWYRQAPGKERELVAGITYTSGSTYYADSVKGRFTISRDYAKNTVYLQMNSLKPEDTAVYYCAAEITRHYVFGDDYWGQGTQVTVSS | low polyreactivity
QVQLVESGGGLVQAGCSLRLSCAASGSTFYAYTKGGYRQAPGKERELVAAISWSDGTTYADSVKGRFTISRDNAKNTVYLQMNSLKPEDTAVYYCATDDVGPGLGYNYWGEGTQVTVSS | low polyreactivity
QVQLVESGGGLVQAGGSLRLSCAASGFTFKAYAMGWYRQAPGKERELVAAITKSGGRTFYADSVKGRFTISRDTAKNTVYFQMNSLKPEDTAVYYCAASYTVYYWGQGTQVTVSS | high polyreactivity

Sequence | polyreactivity (PSR sort gate)
QVQLVESGGGLVQAGGSLRLSCAASGRIFWYYAMGWYRQAPGKEREFVAAITRRGGSTYYADSVKGRFTISRDNAKNTVYLQMNSLKPEDTAVYYCAAVGQKRSLGYSWGQGTQVTVSS | low polyreactivity
QVQLVESGGGLVQAGGTLRLSCAASGITFYLNAMGWYRQAPGKERELVADITVSGGSTYYAVSVKGRFTISRDNVKNTVYLQMNSLKPEDTAVYYCAAKYSSGRVLFEHGYWGQGTQVTVSS | low polyreactivity
QVQIVESGGGLVQAGGSLSLSCAASGRTFAGNAMGWYRQAPGKEMELVASISSSGGRTYYADSVKGRFTISRDNAKNTVYLQMISLKPEDTAVYYCAARGGYVSTWTRFSKYNYWGQGTQVTVSS | high polyreactivity
QVQLVESGGGLVQAGGSLRLSCAASGRTFWGITMGWYRQAPGKERELVASITYSGGRTYYADSVKGRFTISRDNAKNTVYLQMNSLKPEDTAVYYCAATLYRYRYFGYDYWGQGTQVTVSS | high polyreactivity
QVQLVESGGGLVQAGGSLRLSCAASGRISSYYVMGWYRQAPGKERELVAAITGGDSTNYADSVKGRFTISRDNAKNTVYLQMNSLKPEDTAVYYCAAKAYSYSRWGYYGYYYWGQGSQVTVSS | high polyreactivity
QVQLVESGGGLVQAGGSLRLSCAASGSIFLGNALGWYRQAPGKERELVAAISRSGGRTYYADSVKGRFTISRDNAKNTVYLQMNSLKPEDTAVYYCAARSYGIYYAKEFYYWGQGTQVTVSS | high polyreactivity
QVQLVQSGGGLVQAGGSLRLSCADSGGTFRVYAMGSYRQAPGKERQLVASISWSSGITYYADSVKGRFTISRDNAKNTVYLQMNSLKPEDTAVYYCAAEGHVTYGAPGRLYRMGYWGQGTQVTVSS | low polyreactivity
QVQLVESGGGLVQAGGSLRLSCAASGFTFVPYAMGWYRPAPGKEREFVAAITSSGTTNYADSVKGRFTISRDNAKNTVYLQMNSLKPEDTAVYYCAADPDSGQVPFDYWGQGTQVTVSS | low polyreactivity
QVQLVESGGGLVQAGGSLRLSCAASGSTFGVYAMGWYRQAPGKERELVATITRSGGNTYYADSVKGRFTISRDNAKNTVYLQMNSLKPEDTAVYYCAARRLYGSQRGYWGQGTQVTVSS | high polyreactivity
QVQLVESGGGLVQAGGSLRLSCAASARIFFTYVMGWYRQAHGKEREFVAAITFSDGTTYYADSVKGRFTISRDNAKNTVYLQMNSLKPEDTAVYYCNTDSFYGFVYPWTISSEVDYWGQGTQVTVSS | low polyreactivity
QVQLVESGGGLVQAGGSLRLSCAASGRIFYSNTMGWYRQAPGKERELVARIDTGGGSTYADSVKGRFTISRDNAKNTVYLQMNSLKPEDTAVYYCNKKGRWRSWGSTSMVSMDYWGQGTQVTVSS | low polyreactivity
QVQLVESGGGLVQAGGSHRLSCAASGITFAFNTMGWYRQAPGKERELVAAISYSGGRTYYADSVKGRFTISRDNAKNTVYLQMNSLKPEDTAVYYCNTRYRGSYDYWGQATQVTVSS | high polyreactivity
QVQLQESGVGLVQAGGSLGCAASGNISTRSEMGWYRQAPGKEREFVATINSGGITNYADSVKGRFTISRDNAKNTVYLRMNSLKPEDTAVYYREVYGYFSDPYDYWGQGTQVTVSS | low polyreactivity
QLQLVESGGGLVQAGGRLRLSCAASGITYFTYDMGWYRQAPGKERELVAAISGSGGSTYYADSVKGRFTISRDNAKNSFYLQMTSLKPEDTAVYYCAAEYTYGSPYDYWGQGTQVTVSS | low polyreactivity
QVQLVESGGGLVQAGGSLRLSCAASGSNFAKNAMGWYRQAPGKEREMVAAITYSGGSTYYADSVKGRFTISRDNAKNTVYVQMNSLKPEDTAVYYCAADVWWSYYRYDYWGQGTQVTVSS | low polyreactivity
QVQLVESGGGLVQAGGSLRLSCAASGSTFHIYAMGWYRQAPGKERELVAAINRSGGSTRYADSVKGRFTISRDNAKNTVYLQMNSLKPEDTAVYYCATKRSTGYYWGQGTQVTVSS | high polyreactivity
QVQLVESGGGLVQAGGSLRLSCAASGITSGTYAMGWYRQAPGKERELVAAISSSGGRTYYADSVKGRFTISRDNAKNTVYLQMTSLKPEDTAVSYCAAETDTTYAFYWGQGTQVNVSS | high polyreactivity
QVQLVESGGGLVQAGGSLRLSCAASGSTFKRYAMGWYRQAPGKERELVASISSGGSTNYVDSVKGRFTISRDNAKNTVYLQMNSLKPEDTAVYYCAVSYRSFRYYWERYYSWGQGTQVTVSS | high polyreactivity
QVQLVESGGGLVQAGGSLRLSCAASGRILYGYVMGWYRQAPGKERELVAAISWSGARTYYADSVKGRFTISRDNAKNTVYLQMNSLKPEDTAVYYCAARVPSWKYDYWGQGTQVTVSS | high polyreactivity
QVQLVETGGGLVQAGGSLRLSCAASGSIADVYAMGWYRQAPGKERELVAAITSGASTYYADSVKGRFTISRDNAKNTVYLQMNSLKPEDTAVYYCTKSAAITGNGHMDYWGQGTQVTVSS | low polyreactivity
QVQLVESVGGLVQAGGSLRLSCAASGRTFAYYTMGWYRQAPGKERELVARISGYGGSTYYADSVKGRFTISRDNAKNTVYLQMNSLKPEDTAVYYCNVVGAYYRYDYWGQGTQVTVSS | high polyreactivity
